From EP1298214A2, “Plant thioesterases” (Calgene LLC, priority 1990, dated 1991)

Experiments:
Type in all cases: biochemical
[1] = molecular target: T1, pCGN3823 induced E. coli lysate (mature bay thioesterase) (Umbellularia californica, UniProt Q41635); assay: Acyl-ACP hydrolysis by lysate of E. coli expressing mature bay thioesterase as lac fusion; details: Dilution 1/4000, one hour induction with 0.1mM IPTG
T1 construct: the entire mature bay thioesterase protein is expressed as a lac fusion in E. coli cells; made in house
T1 sequence (Q41635 84-382): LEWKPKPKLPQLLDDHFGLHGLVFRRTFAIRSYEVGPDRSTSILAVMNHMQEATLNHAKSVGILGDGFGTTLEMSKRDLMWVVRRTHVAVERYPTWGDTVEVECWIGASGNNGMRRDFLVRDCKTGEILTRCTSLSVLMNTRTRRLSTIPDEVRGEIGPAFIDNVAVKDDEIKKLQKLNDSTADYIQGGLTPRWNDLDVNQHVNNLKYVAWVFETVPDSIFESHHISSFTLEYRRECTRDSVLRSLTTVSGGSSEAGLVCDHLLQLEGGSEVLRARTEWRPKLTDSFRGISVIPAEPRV
Experimental: (§1) To assay for C12 thioesterase activity the following mixture is incubated at 30° for 30 min: "buffer" comprising 7mM KH2PO4-KOH pH 8, 20% v/v glycerol, 1mM dithiothreitol (DTT), 0.1% v/v Triton X100; sample to be tested for activity in the same or similar buffer as the "extraction buffer" described in Example 2; and 5µl of ^14C-radiolabeled lauroyl-ACP substrate for a total volume of 100µl and final lauroyl-ACP concentration of 0.5µM. Lauroyl-ACP substrate is prepared according to the method of Rock et al (Methods in Enzymology (1981) 72:397-403), using ACP prepared from Escherichia coli by the method of Rock and Cronan (Methods in Enzymology (1981) 71:341-351). The laurate is radiolabeled in the carboxylate group at a specific radioactivity of 50-60µCi/µmol.
(§2) The reaction is stopped by adding 0.5ml cold (0°) 10% v/v acetic acid. The fatty acid product of the hydrolytic enzyme action is extracted away from the unhydrolyzed substrate by adding 1ml diethyl ether and mixing vigorously. After settling for a few minutes the upper ether layer is transferred to 5ml scintillation fluid for determination of radioactivity by liquid scintillation spectrometry. Additional ether extractions may be performed to recover remaining traces of the reaction product for more accurate quantitation of the enzyme activity if desired. The amount of ether-extracted radioactivity is a direct measure of C12-preferring acyl-ACP thioesterase activity, provided the amount of enzyme is not sufficient to hydrolyze more than about 25% of the substrate. With greater activity than this the relationship between radioactivity in the ether layer and the quantity of enzyme becomes markedly nonlinear. The enzyme preparation must then be diluted appropriately to bring the activity into the linear range of the assay.
In addition, the entire mature bay thioesterase protein is expressed as a lac fusion in E. coli cells. […] Digestion at this XbaI site cleaves the coding region immediately 5' of the codon representing the leucine at amino acid position 72. This leucine has been identified as a candidate for the amino terminal residue as described in Example 14A.
An approximately 1200 bp fragment of pCGN3822 cDNA is generated by digestion with XbaI, which cuts at the postulated mature protein start site, as described above, and in the vector sequences flanking the 3' end of the cDNA. The XbaI fragment is cloned on XbaI digest of the minus version of a Bluescribe M13(+/-) (also called pBS+/-) cloning vector (Stratagene; San Diego, CA.). The thioesterase gene clone is inserted such that the mature protein is in reading frame with a portion of the lacZ gene of the Bluescribe vector and under control of the lac promoter. […]

[2] = system: control induced E. coli lysate; assay: Acyl-ACP hydrolysis by control E. coli lysate (bay thioesterase gene in opposite orientation); details: Dilution 1/4000, one hour induction with 0.1mM IPTG
Experimental: as §1, §2
The resulting construct, pCGN3823, and a control Bluescribe construct having the bay thioesterase gene inserted in the opposite orientation are transformed into E. coli. The E. coli cells are grown at 37°C in liquid medium and expression from the lac promoter is induced by addition of IPTG to a final concentration of 0.1mM IPTG. Following one hour of induction, cells are harvested, lysed and assayed as described above for the truncated bay thioesterase.

[3] = molecular target: T2, bay thioesterase enzyme purified from developing seeds (Umbellularia californica, UniProt Q41635); assay: Substrate analysis of bay thioesterase purified from developing seeds; details: enzyme purified from developing seeds as in Example 2
T2 construct: The cotyledons from such seeds are dissected from the other seed parts and stored frozen at -70°; This comprises the source tissue for enzyme extraction; from tissue; host or cells: immature seed cotyledons of Umbellularia californica
T2 sequence (Q41635 84-382): T1 sequence (Q41635 84-382)
Experimental: as §1, §2
The dialyzed material is then applied to a column of immobilized ACP (2.5cm diameter x 10.5cm bed height). This column is manufactured by coupling Escherichia coli ACP to cyanogen bromide-activated Sepharose 4B according to instructions supplied by the manufacturer of this column packing (Pharmacia Inc., Piscataway, NJ). The E. coli ACP is prepared as referenced in Example 1. Before use the column is equilibrated with ACP1 buffer. The dialyzed material from the cation exchange column is applied at 1-1.3ml/min, and fractions of 8ml volume are collected throughout the procedure. Fractions are assayed for C12-preferring acyl-ACP thioesterase activity, and for total protein content using a Cobmassie Blue assay method (Bio-Rad Inc., Richmond, CA, catalog no. 500-0001). A substantial amount of protein washes through the column without binding. Almost all of the C12-preferring acyl-ACP thioesterase activity binds. […]

Substance | Hydrolysis Activity (mean cpm in ether extract) [1] [cpm] | Hydrolysis Activity (mean cpm in ether extract) [2] [cpm] | Hydrolysis Activity (mean cpm in ether extract) [3] [cpm]
14:0-ACP | 116 | 0 | 69
16:0-ACP | 20 | 13 | 12
decanoyl-ACP [10:0-ACP] | 0 | 0 | 0
lauroyl-ACP [12:0-ACP] | 1840 | 0 | 1261
